According to the Human Domainome abundance scans (Beltran et al. 2025):
± gives the uncertainty stated by the source.

B1: Death-inducer obliterator 1, residues 263 to 321; numbered along this chain, Q9BTC0 (parent)
chain: GYDPNALYCICRQPHNNRFMICCDRCEEWFHGDCVGISEARGRLLERNGEDYICPNCTI

Variants of: B1
Assay: abundance fitness (aPCA) (normalised: wild type 0, dead -1); higher = more abundant; growth selection in yeast, the domain comes from the species named
Conditions: Homo sapiens

Row | Variant | abundance fitness
1 | GYDPNALYCICRQPHNNRFMICCDRCEEWFKGDCVGISEARGRLLERNGEDYICPNCTI [H31K] | -0.967 ± 0.26
2 | GYDPNALYCICRQPHNNRFMICCDRCEEWFLGDCVGISEARGRLLERNGEDYICPNCTI [H31L] | -0.628 ± 0.088
3 | GYDPNALYCICRQPHNNRFMICCDRCEEWFSGDCVGISEARGRLLERNGEDYICPNCTI [H31S] | -0.776 ± 0.09
4 | GYDPNALYCICRQPHNNRFMICCDRCEEWFDGDCVGISEARGRLLERNGEDYICPNCTI [H31D] | -0.422 ± 0.12
5 | GYDPNALYCICRQPHNNRFMICCDRCEEWFYGDCVGISEARGRLLERNGEDYICPNCTI [H31Y] | -0.732 ± 0.17
6 | GYDPNALYCICRQPHNNRFMICCDRCEEWFQGDCVGISEARGRLLERNGEDYICPNCTI [H31Q] | -0.782 ± 0.29
7 | GYDPNALYCICRQPHNNRFMICCDRCEEWFTGDCVGISEARGRLLERNGEDYICPNCTI [H31T] | -0.956 ± 0.14
8 | GYDPNALYCICRQPHNNRFMICCDRCEEWFRGDCVGISEARGRLLERNGEDYICPNCTI [H31R] | -0.584 ± 0.1
9 | GYDPNALYCICRQPHNNRFMICCDRCEEWFWGDCVGISEARGRLLERNGEDYICPNCTI [H31W] | -0.507 ± 0.11
10 | GYDPNALYCICRQPHNNRFMICCDRCEEWFIGDCVGISEARGRLLERNGEDYICPNCTI [H31I] | -0.67 ± 0.096
11 | GYDPNALYCICRQPHNNRFMICCDRCEEWFEGDCVGISEARGRLLERNGEDYICPNCTI [H31E] | -0.923 ± 0.22
12 | GYDPNALYCICRQPHNNRFMICCDRCEEWFVGDCVGISEARGRLLERNGEDYICPNCTI [H31V] | -0.664 ± 0.093
13 | GYDPNALYCICRQPHNNRFMICCDRCEEWFPGDCVGISEARGRLLERNGEDYICPNCTI [H31P] | -1.05 ± 0.22
14 | GYDPNALYCICRQPHNNRFMICCDRCEEWFFGDCVGISEARGRLLERNGEDYICPNCTI [H31F] | -0.559 ± 0.12
15 | GYDPNALYCICRQPHNNRFMICCDRCEEWFMGDCVGISEARGRLLERNGEDYICPNCTI [H31M] | -0.667 ± 0.11
16 | GYDPNALYCICRQPHNNRFMICCDRCEEWFNGDCVGISEARGRLLERNGEDYICPNCTI [H31N] | -0.765 ± 0.14
17 | GYDPNALYCICRQPHNNRFMICCDRCEEWFHRDCVGISEARGRLLERNGEDYICPNCTI [G32R] | 0.026 ± 0.05
18 | GYDPNALYCICRQPHNNRFMICCDRCEEWFHTDCVGISEARGRLLERNGEDYICPNCTI [G32T] | 0.084 ± 0.073
19 | GYDPNALYCICRQPHNNRFMICCDRCEEWFHHDCVGISEARGRLLERNGEDYICPNCTI [G32H] | -0.009 ± 0.13
20 | GYDPNALYCICRQPHNNRFMICCDRCEEWFHLDCVGISEARGRLLERNGEDYICPNCTI [G32L] | 0.025 ± 0.046
21 | GYDPNALYCICRQPHNNRFMICCDRCEEWFHPDCVGISEARGRLLERNGEDYICPNCTI [G32P] | -0.155 ± 0.067
22 | GYDPNALYCICRQPHNNRFMICCDRCEEWFHFDCVGISEARGRLLERNGEDYICPNCTI [G32F] | -0.016 ± 0.1
23 | GYDPNALYCICRQPHNNRFMICCDRCEEWFHDDCVGISEARGRLLERNGEDYICPNCTI [G32D] | 0.045 ± 0.097

Row | Variant | abundance fitness
24 | GYDPNALYCICRQPHNNRFMICCDRCEEWFHQDCVGISEARGRLLERNGEDYICPNCTI [G32Q] | -0.054 ± 0.084
25 | GYDPNALYCICRQPHNNRFMICCDRCEEWFHIDCVGISEARGRLLERNGEDYICPNCTI [G32I] | 0.169 ± 0.071
26 | GYDPNALYCICRQPHNNRFMICCDRCEEWFHMDCVGISEARGRLLERNGEDYICPNCTI [G32M] | -0.054 ± 0.045
27 | GYDPNALYCICRQPHNNRFMICCDRCEEWFHNDCVGISEARGRLLERNGEDYICPNCTI [G32N] | -0.179 ± 0.1
28 | GYDPNALYCICRQPHNNRFMICCDRCEEWFHEDCVGISEARGRLLERNGEDYICPNCTI [G32E] | 0.022 ± 0.05
29 | GYDPNALYCICRQPHNNRFMICCDRCEEWFHSDCVGISEARGRLLERNGEDYICPNCTI [G32S] | -0.036 ± 0.045
30 | GYDPNALYCICRQPHNNRFMICCDRCEEWFHWDCVGISEARGRLLERNGEDYICPNCTI [G32W] | 0.05 ± 0.069
31 | GYDPNALYCICRQPHNNRFMICCDRCEEWFHADCVGISEARGRLLERNGEDYICPNCTI [G32A] | 0.067 ± 0.075
32 | GYDPNALYCICRQPHNNRFMICCDRCEEWFHVDCVGISEARGRLLERNGEDYICPNCTI [G32V] | -0.055 ± 0.059
33 | GYDPNALYCICRQPHNNRFMICCDRCEEWFHYDCVGISEARGRLLERNGEDYICPNCTI [G32Y] | -0.421 ± 0.18
34 | GYDPNALYCICRQPHNNRFMICCDRCEEWFHGRCVGISEARGRLLERNGEDYICPNCTI [D33R] | -0.002 ± 0.052
35 | GYDPNALYCICRQPHNNRFMICCDRCEEWFHGMCVGISEARGRLLERNGEDYICPNCTI [D33M] | -0.195 ± 0.08
36 | GYDPNALYCICRQPHNNRFMICCDRCEEWFHGNCVGISEARGRLLERNGEDYICPNCTI [D33N] | -0.259 ± 0.075
37 | GYDPNALYCICRQPHNNRFMICCDRCEEWFHGPCVGISEARGRLLERNGEDYICPNCTI [D33P] | -0.136 ± 0.059
38 | GYDPNALYCICRQPHNNRFMICCDRCEEWFHGHCVGISEARGRLLERNGEDYICPNCTI [D33H] | -0.101 ± 0.072
39 | GYDPNALYCICRQPHNNRFMICCDRCEEWFHGLCVGISEARGRLLERNGEDYICPNCTI [D33L] | -0.047 ± 0.045
40 | GYDPNALYCICRQPHNNRFMICCDRCEEWFHGECVGISEARGRLLERNGEDYICPNCTI [D33E] | -0.026 ± 0.077
41 | GYDPNALYCICRQPHNNRFMICCDRCEEWFHGCCVGISEARGRLLERNGEDYICPNCTI [D33C] | -0.013 ± 0.068
42 | GYDPNALYCICRQPHNNRFMICCDRCEEWFHGACVGISEARGRLLERNGEDYICPNCTI [D33A] | -0.154 ± 0.078
43 | GYDPNALYCICRQPHNNRFMICCDRCEEWFHGGCVGISEARGRLLERNGEDYICPNCTI [D33G] | -0.027 ± 0.04
44 | GYDPNALYCICRQPHNNRFMICCDRCEEWFHGKCVGISEARGRLLERNGEDYICPNCTI [D33K] | -0.028 ± 0.078
45 | GYDPNALYCICRQPHNNRFMICCDRCEEWFHGQCVGISEARGRLLERNGEDYICPNCTI [D33Q] | -0.127 ± 0.11
